According to patent publication US20080199467A1 (TRANSTECH PHARMA, published 2008):

Target: T1, BSA (UniProt P02769 25-607)
T1 construct: Negative control coating; also called BSA coating alone; BSA+wash
Test: ELISA, plate coated with BSA only, dilutions of fusion protein, anti-human IgG1 immunodetection complex, A405
Protocol: Known RAGE ligands were coated onto the surface of Maxisorb plates at a concentration of 5 micrograms per well. Plates were incubated at 4° C. overnight. Following ligand incubation, plates were aspirated and a blocking buffer of 1% BSA in 50 mM imidizole buffer (pH 7.2) was added to the plates for 1 hour at room temperature. The plates were then aspirated and/or washed with wash buffer (20 mM Imidizole, 150 mM NaCl, 0.05% Tween-20, 5 mM CaCl₂ and 5 mM MgCl₂, pH 7.2). […] The RAGE fusion protein was added at increasing dilutions of the initial sample. The RAGE fusion protein was allowed to incubate with the immobilized ligand at 37° C. for one hour after which the plate was washed and assayed for binding of the RAGE fusion protein. Binding was detected by the addition of an immunodetection complex containing a monoclonal mouse anti-human IgG1 diluted 1:11,000 to a final assay concentration (FAC) of 21 ng/100 μL, a biotinylated goat anti-mouse IgG diluted 1:500, to a FAC of […], and an avidin-linked alkaline phosphatase. […] Binding of the complex to the immobilized RAGE fusion protein was quantified by measuring conversion of PNPP to para-nitrophenol (PNP) which was measured spectrophotometrically at 405 nm.

T1 sequence (P02769 25-607 limits assumed): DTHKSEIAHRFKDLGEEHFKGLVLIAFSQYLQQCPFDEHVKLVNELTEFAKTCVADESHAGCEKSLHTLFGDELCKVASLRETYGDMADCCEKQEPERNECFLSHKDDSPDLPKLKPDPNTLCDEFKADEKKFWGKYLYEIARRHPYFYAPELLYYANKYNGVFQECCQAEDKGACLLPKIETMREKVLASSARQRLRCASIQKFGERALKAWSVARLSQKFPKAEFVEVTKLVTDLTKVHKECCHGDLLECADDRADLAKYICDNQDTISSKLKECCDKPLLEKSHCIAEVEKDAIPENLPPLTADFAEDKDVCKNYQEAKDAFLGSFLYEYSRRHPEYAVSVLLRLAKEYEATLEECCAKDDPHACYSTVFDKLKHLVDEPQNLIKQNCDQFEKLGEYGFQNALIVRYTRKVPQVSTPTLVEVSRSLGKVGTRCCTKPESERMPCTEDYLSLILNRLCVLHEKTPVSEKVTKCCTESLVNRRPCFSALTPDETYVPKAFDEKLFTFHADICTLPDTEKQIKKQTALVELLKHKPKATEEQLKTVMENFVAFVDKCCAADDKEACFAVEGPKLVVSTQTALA

Row | binding result | Binder
1 | no binding | RAGE fusion protein TTP-4000 (Fc fusion, N-terminal residue glutamine (Q) or pyroglutamic acid (pE) or a mixture thereof; glycosylation sites at N2 and N288 (numbering of the processed protein); C-terminal residue may be cleaved off, The end of the range (461) is derived from the coding length 1-1386 and from residues P459 and G460 near the terminal codon; also called TT4; four domain fusion protein) QNITARIGEPLVLKCKGAPKKPPQRLEWKLNTGRTEAWKVLSPQGGGPWDSVARVLPNGSLFLPAVGIQDEGIFRCQAMNRNGKETKSNYRVRVYQIPGKPEIVDSASELTAGVPNKVGTCVSEGSYPAGTLSWHLDGKPLVPNEKGVSVKEQTRRHPETGLFTLQSELMVTPARGGDPRPTFSCSFSPGLPRHRALRTAPIQPRVWEPVPLEEVQLVVEPEGGAVAPPSVFLFPPKPKDTLMISRTPEVTCVVVDVSHEDPEVKFNWYVDGVEVHNAKTKPREEQYNSTYRVVSVLTVLHQDWLNGKEYKCKVSNKALPAPIEKTISKAKGQPREPQVYTLPPSRDELTKNQVSLTCLVKGFYPSDIAVEWESNGQPENNYKTTPPVLDSDGSFFLYSKLTVDKSRWQQGNVFSCSVMHEALHNHYTQKSLSLSPGK
2 | no binding | RAGE fusion protein TTP-3000 (Fc fusion, N-terminal glutamine may be cyclized to pyroglutamic acid (SEQ ID NO: 19), The range 24-346 is derived from this and from the coding length 1-1041; No characterization of the expressed TTP-3000 is reported; also called TT3; three domain fusion protein) QNITARIGEPLVLKCKGAPKKPPQRLEWKLNTGRTEAWKVLSPQGGGPWDSVARVLPNGSLFLPAVGIQDEGIFRCQAMNRNGKETKSNYRVRVYQIPGKPEIVDSASELTAGPSVFLFPPKPKDTLMISRTPEVTCVVVDVSHEDPEVKFNWYVDGVEVHNAKTKPREEQYNSTYRVVSVLTVLHQDWLNGKEYKCKVSNKALPAPIEKTISKAKGQPREPQVYTLPPSRDELTKNQVSLTCLVKGFYPSDIAVEWESNGQPENNYKTTPPVLDSDGSFFLYSKLTVDKSRWQQGNVFSCSVMHEALHNHYTQKSLSLSPGK
